The source of these data is patent US20100221261.

For series [1], the target named is GST-XIAP linker BIR 2 [GST: P08515].
The target of series [2] is GST-linker BIR 2 BIR3Ring.
Sequence of GST-linker BIR 2 BIR3Ring (chain, as listed by the source): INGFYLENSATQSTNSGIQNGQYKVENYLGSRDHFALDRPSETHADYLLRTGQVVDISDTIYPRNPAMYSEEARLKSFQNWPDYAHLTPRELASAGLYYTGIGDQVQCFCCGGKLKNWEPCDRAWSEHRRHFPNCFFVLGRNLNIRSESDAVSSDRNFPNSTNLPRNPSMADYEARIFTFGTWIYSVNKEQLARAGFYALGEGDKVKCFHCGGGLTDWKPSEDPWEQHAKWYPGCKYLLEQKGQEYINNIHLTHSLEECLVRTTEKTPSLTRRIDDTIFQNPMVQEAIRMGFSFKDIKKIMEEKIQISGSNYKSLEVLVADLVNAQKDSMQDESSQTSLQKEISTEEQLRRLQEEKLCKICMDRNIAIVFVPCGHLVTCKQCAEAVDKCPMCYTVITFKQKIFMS

B1: Caspase-3 (protein)
chain: SGISLDNSYKMDYPEMGLCIIINNKNFHKSTGMTSRSGTDVDAANLRETFRNLKYEVRNKNDLTREEIVELMRDVSKEDHSKRSSFVCVLLSHGEEGIIFGTNGPVDLKKITNFFRGDRCRSLTGKPKLFIIQACRGTELDCGIETDSGVDDDMACHKIPVEADFLYAYSTAPGYYSWRNSKDGSWFIQSLCAMLKQYADKLEFMHILTRVNRKVATEFESFSFDATFHAKKQIPCIVSMLTKELYFYH
In the case of B1, the “Caspase 3 activity (hydrolysis of DEVD-AMC, released AMC fluorescence)” value is listed as “caspase-3 was inhibited by GST fusion proteins of XIAP linker-Bir2, XIAP Linker Bir2-Bir3-RING or full-length XIAP” in series [1] and “caspase-3 was inhibited by GST fusion proteins of XIAP linker-Bir2, XIAP Linker Bir2-Bir3-RING or full-length XIAP” in series [2].
